Measurements published in patent US20110287011A1 (ONCOMED PHARMACEUTICALS, published 2011).

What was measured:
Test in all cases: FACS on HEK293 cells transfected with the DDR1 variant
[1] = target: FLAG-tagged human DDR1 S175A variant (human, UniProt Q08345 19-913)
Method: (§1) Full length cDNA encoding FLAG-tagged human DDR1 variants were transiently transfected into HEK293 cells using standard procedures as known to one skilled in the art. To determine the capacity of antibodies to bind the DDR1 variants, antibodies were incubated with HEK293 cells transfected with plasmid encoding either wild type DDR1 or one of the point mutation variants. All cells were co-transfected with plasmid encoding GFP. The cells were analyzed by FACS as described herein for binding of the antibodies to wild type DDR1 and to DDR1 variants.

[2] = target: FLAG-tagged human DDR1 D68A variant (human, UniProt Q08345 19-913)
Method: as §1

[3] = target: FLAG-tagged human DDR1 E113Q variant (human, UniProt Q08345 19-913)
Method: as §1

[4] = target: FLAG-tagged human DDR1 L110A variant (human, UniProt Q08345 19-913)
Method: as §1

[5] = target: FLAG-tagged human DDR1 R105A variant (human, UniProt Q08345 19-913)
Method: as §1

Measured: binding result

Chain of FLAG-tagged human DDR1 L110A variant (Q08345 other isoform, or with tags, fused parts or gaps L110A L110A limits assumed): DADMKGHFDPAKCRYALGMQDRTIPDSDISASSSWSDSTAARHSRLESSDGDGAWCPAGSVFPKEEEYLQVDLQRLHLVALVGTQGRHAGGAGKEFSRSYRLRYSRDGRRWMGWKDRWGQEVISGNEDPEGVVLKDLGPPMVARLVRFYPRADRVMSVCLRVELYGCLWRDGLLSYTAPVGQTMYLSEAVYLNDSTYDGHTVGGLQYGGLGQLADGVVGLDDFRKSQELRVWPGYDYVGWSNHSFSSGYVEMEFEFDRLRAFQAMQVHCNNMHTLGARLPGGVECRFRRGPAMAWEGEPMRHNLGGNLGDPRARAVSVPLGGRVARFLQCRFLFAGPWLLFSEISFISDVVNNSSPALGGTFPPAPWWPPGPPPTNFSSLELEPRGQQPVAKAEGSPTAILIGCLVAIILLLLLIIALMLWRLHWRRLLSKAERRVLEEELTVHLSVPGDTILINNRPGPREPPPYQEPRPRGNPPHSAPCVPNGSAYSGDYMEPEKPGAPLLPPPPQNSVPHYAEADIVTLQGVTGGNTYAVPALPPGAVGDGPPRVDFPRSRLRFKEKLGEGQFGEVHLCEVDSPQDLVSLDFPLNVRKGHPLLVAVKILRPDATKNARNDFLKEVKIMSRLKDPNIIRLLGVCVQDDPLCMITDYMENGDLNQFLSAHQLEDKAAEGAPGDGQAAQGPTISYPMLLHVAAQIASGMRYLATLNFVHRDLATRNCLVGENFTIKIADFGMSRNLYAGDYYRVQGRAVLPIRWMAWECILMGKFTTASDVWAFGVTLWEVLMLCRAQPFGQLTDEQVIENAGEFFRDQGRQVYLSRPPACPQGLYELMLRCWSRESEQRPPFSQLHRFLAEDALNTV
Chain of FLAG-tagged human DDR1 R105A variant (Q08345 other isoform, or with tags, fused parts or gaps R105A R105A limits assumed): as the sequence (Q08345 other isoform, or with tags, fused parts or gaps L110A L110A limits assumed) above, with R87A, A92L counted along it
Chain of FLAG-tagged human DDR1 S175A variant (Q08345 other isoform, or with tags, fused parts or gaps S175A S175A limits assumed): as the sequence (Q08345 other isoform, or with tags, fused parts or gaps L110A L110A limits assumed) above, with A92L, S157A counted along it
Chain of FLAG-tagged human DDR1 D68A variant (Q08345 other isoform, or with tags, fused parts or gaps D68A D68A limits assumed): as the sequence (Q08345 other isoform, or with tags, fused parts or gaps L110A L110A limits assumed) above, with D50A, A92L counted along it
Chain of FLAG-tagged human DDR1 E113Q variant (Q08345 other isoform, or with tags, fused parts or gaps E113Q E113Q limits assumed): as the sequence (Q08345 other isoform, or with tags, fused parts or gaps L110A L110A limits assumed) above, with A92L, E95Q counted along it

B1: antibody 20M102 (antibody, mouse IgG1, kappa, V domains shown)
VH: EVQLQQSGSELVKPGASVKMSCKASGYTFTDYFMKWVKQSHGKSLEWIGDINPNNGDTFYIQKFKGKATLTVDKSSSTAYMQLNSLTSEDSAVYYCSRDLAYWGQGTLVAVSS
VL: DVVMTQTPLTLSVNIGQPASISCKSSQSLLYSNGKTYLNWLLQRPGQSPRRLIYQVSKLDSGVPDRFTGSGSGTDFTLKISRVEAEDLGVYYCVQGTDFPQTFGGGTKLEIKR
notes: Mouse monoclonal IgG purified from hybridoma supernatant; also called anti-DDR1 antibody 20M102; hybridoma ATCC PTA-10051
binds: all assays above
